Experimental data reported in patent US20170210824A1.

Target: Peptide-3B (NME1 H118, 1-pTza) (mammalian)
Assay: peptide dot blot array

Q: With 1-pHis mAb SC1-1 (antibody) as the substance, how does the lowest amount detected read?
A: 1 ng
